The values below come from paper PMC10786891, “Massively parallel profiling of RNA-targeting CRISPR-Cas13d”.

The chains are these.
B1: target 1 G13U,G15A (mixed)
RNA 1: CACCCGUGCAAAAAUGCAGGGGUCUAAAACUGAGCGGAUAACCUCUCUAUGG
RNA 2: GGGAAUGGAUCCACAUCUACGAAUUCGUACCAUAGAAAUGUUAUCCGCUCACCGAGAUCGGAAGAGCACACGU
B2: target 1 insG 3' of 19,insA 3' of 11 (mixed)
RNA 1: CACCCGUGCAAAAAUGCAGGGGUCUAAAACUGAGCGGAUAACCUCUCUAUGG
RNA 2: GGGAAUGGAUCCACAUCUACGAAUUCGUACCAUGAGAGAGGUAUAUCCGCUCACCGAGAUCGGAAGAGCACACGU
B3: target 2 MT 5'PFS GUG 3'PFS CCA (mixed)
RNA 1: CACCCGUGCAAAAUUGCAGGGGUCUAAAACCUUCUCCAAAUUGUUUCAUCCU
RNA 2: GGGAAUGGAUCCACAUCUACGAAUUCGUGAGGAUGAAACAAUUUGGAGAAGCCAAGAUCGGAAGAGCACACGU
B4: target 2 MT 5'PFS CUU 3'PFS CGG (mixed)
RNA 1: CACCCGUGCAAAAUUGCAGGGGUCUAAAACCUUCUCCAAAUUGUUUCAUCCU
RNA 2: GGGAAUGGAUCCACAUCUACGAAUUCCUUAGGAUGAAACAAUUUGGAGAAGCGGAGAUCGGAAGAGCACACGU
B5: target 2 MT 5'PFS UGA 3'PFS AGA (mixed)
RNA 1: CACCCGUGCAAAAUUGCAGGGGUCUAAAACCUUCUCCAAAUUGUUUCAUCCU
RNA 2: GGGAAUGGAUCCACAUCUACGAAUUCUGAAGGAUGAAACAAUUUGGAGAAGAGAAGAUCGGAAGAGCACACGU
B6: target 2 MT 5'PFS UCU 3'PFS UCC (mixed)
RNA 1: CACCCGUGCAAAAUUGCAGGGGUCUAAAACCUUCUCCAAAUUGUUUCAUCCU
RNA 2: GGGAAUGGAUCCACAUCUACGAAUUCUCUAGGAUGAAACAAUUUGGAGAAGUCCAGAUCGGAAGAGCACACGU
B7: target 2 MT 5'PFS CUU 3'PFS AGG (mixed)
RNA 1: CACCCGUGCAAAAUUGCAGGGGUCUAAAACCUUCUCCAAAUUGUUUCAUCCU
RNA 2: GGGAAUGGAUCCACAUCUACGAAUUCCUUAGGAUGAAACAAUUUGGAGAAGAGGAGAUCGGAAGAGCACACGU
B8: target 2 MT 5'PFS GUG 3'PFS AAC (mixed)
RNA 1: CACCCGUGCAAAAUUGCAGGGGUCUAAAACCUUCUCCAAAUUGUUUCAUCCU
RNA 2: GGGAAUGGAUCCACAUCUACGAAUUCGUGAGGAUGAAACAAUUUGGAGAAGAACAGAUCGGAAGAGCACACGU
B9: target 2 MT 5'PFS UAU 3'PFS UCA (mixed)
RNA 1: CACCCGUGCAAAAUUGCAGGGGUCUAAAACCUUCUCCAAAUUGUUUCAUCCU
RNA 2: GGGAAUGGAUCCACAUCUACGAAUUCUAUAGGAUGAAACAAUUUGGAGAAGUCAAGAUCGGAAGAGCACACGU
B10: target 2 MT 5'PFS GUG 3'PFS CCG (mixed)
RNA 1: CACCCGUGCAAAAUUGCAGGGGUCUAAAACCUUCUCCAAAUUGUUUCAUCCU
RNA 2: GGGAAUGGAUCCACAUCUACGAAUUCGUGAGGAUGAAACAAUUUGGAGAAGCCGAGAUCGGAAGAGCACACGU
B11: target 2 MT 5'PFS CUU 3'PFS AGU (mixed)
RNA 1: CACCCGUGCAAAAUUGCAGGGGUCUAAAACCUUCUCCAAAUUGUUUCAUCCU
RNA 2: GGGAAUGGAUCCACAUCUACGAAUUCCUUAGGAUGAAACAAUUUGGAGAAGAGUAGAUCGGAAGAGCACACGU
B12: target 2 MT 5'PFS CUU 3'PFS CGC (mixed)
RNA 1: CACCCGUGCAAAAUUGCAGGGGUCUAAAACCUUCUCCAAAUUGUUUCAUCCU
RNA 2: GGGAAUGGAUCCACAUCUACGAAUUCCUUAGGAUGAAACAAUUUGGAGAAGCGCAGAUCGGAAGAGCACACGU
B13: target 2 MT 5'PFS GAG 3'PFS CCG (mixed)
RNA 1: CACCCGUGCAAAAUUGCAGGGGUCUAAAACCUUCUCCAAAUUGUUUCAUCCU
RNA 2: GGGAAUGGAUCCACAUCUACGAAUUCGAGAGGAUGAAACAAUUUGGAGAAGCCGAGAUCGGAAGAGCACACGU
B14: target 2 MT 5'PFS AAG 3'PFS CUG (mixed)
RNA 1: CACCCGUGCAAAAUUGCAGGGGUCUAAAACCUUCUCCAAAUUGUUUCAUCCU
RNA 2: GGGAAUGGAUCCACAUCUACGAAUUCAAGAGGAUGAAACAAUUUGGAGAAGCUGAGAUCGGAAGAGCACACGU
B15: target 2 MT 5'PFS UAU 3'PFS UCG (mixed)
RNA 1: CACCCGUGCAAAAUUGCAGGGGUCUAAAACCUUCUCCAAAUUGUUUCAUCCU
RNA 2: GGGAAUGGAUCCACAUCUACGAAUUCUAUAGGAUGAAACAAUUUGGAGAAGUCGAGAUCGGAAGAGCACACGU
B16: target 2 MT 5'PFS CUU 3'PFS AGA (mixed)
RNA 1: CACCCGUGCAAAAUUGCAGGGGUCUAAAACCUUCUCCAAAUUGUUUCAUCCU
RNA 2: GGGAAUGGAUCCACAUCUACGAAUUCCUUAGGAUGAAACAAUUUGGAGAAGAGAAGAUCGGAAGAGCACACGU
B17: target 2 MT 5'PFS AAG 3'PFS CUC (mixed)
RNA 1: CACCCGUGCAAAAUUGCAGGGGUCUAAAACCUUCUCCAAAUUGUUUCAUCCU
RNA 2: GGGAAUGGAUCCACAUCUACGAAUUCAAGAGGAUGAAACAAUUUGGAGAAGCUCAGAUCGGAAGAGCACACGU
B18: target 2 MT 5'PFS GAG 3'PFS CCA (mixed)
RNA 1: CACCCGUGCAAAAUUGCAGGGGUCUAAAACCUUCUCCAAAUUGUUUCAUCCU
RNA 2: GGGAAUGGAUCCACAUCUACGAAUUCGAGAGGAUGAAACAAUUUGGAGAAGCCAAGAUCGGAAGAGCACACGU
B19: target 2 MT 5'PFS CUU 3'PFS AGC (mixed)
RNA 1: CACCCGUGCAAAAUUGCAGGGGUCUAAAACCUUCUCCAAAUUGUUUCAUCCU
RNA 2: GGGAAUGGAUCCACAUCUACGAAUUCCUUAGGAUGAAACAAUUUGGAGAAGAGCAGAUCGGAAGAGCACACGU
B20: target 2 MT 5'PFS CUU 3'PFS CGA (mixed)
RNA 1: CACCCGUGCAAAAUUGCAGGGGUCUAAAACCUUCUCCAAAUUGUUUCAUCCU
RNA 2: GGGAAUGGAUCCACAUCUACGAAUUCCUUAGGAUGAAACAAUUUGGAGAAGCGAAGAUCGGAAGAGCACACGU
B21: target 2 MT 5'PFS GUG 3'PFS AAU (mixed)
RNA 1: CACCCGUGCAAAAUUGCAGGGGUCUAAAACCUUCUCCAAAUUGUUUCAUCCU
RNA 2: GGGAAUGGAUCCACAUCUACGAAUUCGUGAGGAUGAAACAAUUUGGAGAAGAAUAGAUCGGAAGAGCACACGU
B22: target 2 MT 5'PFS CUU 3'PFS CGU (mixed)
RNA 1: CACCCGUGCAAAAUUGCAGGGGUCUAAAACCUUCUCCAAAUUGUUUCAUCCU
RNA 2: GGGAAUGGAUCCACAUCUACGAAUUCCUUAGGAUGAAACAAUUUGGAGAAGCGUAGAUCGGAAGAGCACACGU
B23: target 2 MT 5'PFS AAG 3'PFS CUA (mixed)
RNA 1: CACCCGUGCAAAAUUGCAGGGGUCUAAAACCUUCUCCAAAUUGUUUCAUCCU
RNA 2: GGGAAUGGAUCCACAUCUACGAAUUCAAGAGGAUGAAACAAUUUGGAGAAGCUAAGAUCGGAAGAGCACACGU

The data set concerns the target T1, EsCas13d, nuclease-dead (Eubacterium siraeum, UniProt B0MS50, R295A;H300A;R849A;H854A).
T1 sequence: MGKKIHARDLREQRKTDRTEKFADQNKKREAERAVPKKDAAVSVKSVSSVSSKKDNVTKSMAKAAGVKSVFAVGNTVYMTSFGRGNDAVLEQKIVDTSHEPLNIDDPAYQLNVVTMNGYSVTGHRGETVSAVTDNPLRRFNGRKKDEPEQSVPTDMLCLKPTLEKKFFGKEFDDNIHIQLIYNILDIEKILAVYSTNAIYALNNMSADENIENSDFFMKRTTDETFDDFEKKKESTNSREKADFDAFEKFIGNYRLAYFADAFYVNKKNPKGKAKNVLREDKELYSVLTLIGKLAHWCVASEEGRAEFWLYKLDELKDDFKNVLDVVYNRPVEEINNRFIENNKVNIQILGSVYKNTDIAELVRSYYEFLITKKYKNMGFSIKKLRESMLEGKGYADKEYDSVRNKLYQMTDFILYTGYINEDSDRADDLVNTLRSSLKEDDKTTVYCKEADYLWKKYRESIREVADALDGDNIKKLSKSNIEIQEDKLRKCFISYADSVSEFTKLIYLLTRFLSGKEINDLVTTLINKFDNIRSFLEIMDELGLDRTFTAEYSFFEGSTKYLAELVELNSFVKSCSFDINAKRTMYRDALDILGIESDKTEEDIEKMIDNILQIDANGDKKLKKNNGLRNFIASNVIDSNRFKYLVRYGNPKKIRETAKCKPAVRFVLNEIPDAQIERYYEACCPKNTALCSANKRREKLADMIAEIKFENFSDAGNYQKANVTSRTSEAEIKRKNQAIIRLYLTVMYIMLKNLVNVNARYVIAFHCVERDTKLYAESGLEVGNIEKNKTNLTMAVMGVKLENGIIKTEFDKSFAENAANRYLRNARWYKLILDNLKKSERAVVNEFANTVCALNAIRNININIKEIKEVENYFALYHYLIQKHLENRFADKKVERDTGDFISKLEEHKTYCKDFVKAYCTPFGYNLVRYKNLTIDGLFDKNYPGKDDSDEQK
The experiment in a line: crRNA (strand 1, pre-loaded); Mg2+; 40 mM Tris-HCl pH 7.5, 150 mM NaCl, 6 mM MgCl2, 1 mM DTT, 0.1% Tween-20, 0.2 mg/ml BSA; 25 C; 10 min per concentration, then washed. The following applies: tags: His6-TwinStrep-SUMO cleaved; N-terminal SNAP kept (SNAP-Surface 488); label: 3' end held by stalled T7 RNA polymerase.
As for B1, the dissociation constant (Kd) amounted to 22 ± 4 nM.
In the case of B2 it was 89 ± 16 nM; in that of B3, 21.2 ± 1.8 nM; in that of B4, 2.9 ± 0.4 nM.
The value for B5 was 5.4 ± 0.5 nM; that for B6 was 7.2 ± 0.7 nM; that for B7 was 2.4 ± 0.4 nM.
The value for B8 was 10.5 ± 1.6 nM; that for B9 was 24 ± 5 nM.
B10: binding was put at a Kd of 13.6 ± 0.9 nM.
The value for B11 was 3.1 ± 0.4 nM; that for B12 was 5 ± 0.4 nM; that for B13 was 6.77 ± 0.3 nM.
Consider B14, for which the Kd worked out at 4.9 ± 0.7 nM.
B15 yielded a Kd of 27.2 ± 3.2 nM.
Molecule B16 showed a Kd of 2.9 ± 0.4 nM. This Kd is about 9.4-fold lower than that of the molecule before.
Consider B17, for which binding was characterised by a dissociation constant (Kd) of 10 ± 1.6 nM. This Kd lies about 3.4-fold higher than the previous one.
The value for B18 was 17.2 ± 2.6 nM.
In turn, B19 registered an equilibrium dissociation constant (Kd) of 2.28 ± 0.22 nM.
In the case of B20 it was 3.4 ± 0.4 nM.
In the case of B21 it was 8.6 ± 1 nM; in that of B22, 3.8 ± 0.5 nM.
In the case of B23, binding was characterised by a dissociation constant (Kd) of 4.4 ± 0.6 nM.
